From patent publication US20080107630

Tested on: gelatin (0.1%, incorporated in a 10% Tris-glycine polyacrylamide gel as substrate)

human matrix metalloproteinase-8 (recombinant, secreted by A549 cells infected with AdMMP8)
gelatin hydrolysis in zymogram gel: The gelatin hydrolysis visible in the zymogram gel
